The assay addresses T1, 1st beta propeller of human LRP5 (human, UniProt O75197 32-338).
T1 sequence (looked up): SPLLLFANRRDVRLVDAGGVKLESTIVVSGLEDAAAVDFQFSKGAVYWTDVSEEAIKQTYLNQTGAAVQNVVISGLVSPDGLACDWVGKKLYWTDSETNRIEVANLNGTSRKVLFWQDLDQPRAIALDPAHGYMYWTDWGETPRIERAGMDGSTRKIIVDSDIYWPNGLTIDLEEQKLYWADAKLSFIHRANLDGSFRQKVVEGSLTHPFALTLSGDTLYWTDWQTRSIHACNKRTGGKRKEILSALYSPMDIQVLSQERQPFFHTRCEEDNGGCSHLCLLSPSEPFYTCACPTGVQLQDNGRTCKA
The assay can be described thus: SPR.

B1: Recombinant insect cell-produced human sclerostin (natural protein, UniProt Q9BQB4 24-213, looked up)
chain: QGWQAFKNDATEIIPELGEYPEPPPELENNKTMNRAENGGRPPHHPFETKDVSEYSCRELHFTRYVTDGPCRSAKPVTELVCSGQCGPARLLPNAIGRGKWWRPSGPDFRCIPDRYRAQRVQLLCPGGEAPRARKVRLVASCKCKRLTRFHNQSELKDFGTEAARPQKGRKPRPRARSAKANQAELENAY
Regarding B1, the binding result was “binds”.

For the origin of these results see publication PMC2821021 (Biochemical and biophysical research communications, 2009).
